In US20090280138A1 (OXFORD BIOMEDICA UK, published 2009):

Columns and labels:
Test in all cases: iTopia peptide binding assay
[1] = target: T1, MHC class I molecule A*0101 (biotin (bound to streptavidin-coated plate))
T1 construct: iTopia monomer stripped of placeholder peptide and b2M, then reconstituted with test peptide and fresh b2M; also called A1; HLA-A1
Outline: (§1)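 Plates coated with MHC class I molecules used to test 9-mer peptides for binding under standardized optimal conditions via the iTopia Epitope Discovery System. Read by ELISA in duplicate with allele-specific positive controls; binders taken on to affinity and off-rate testing.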

[2] = target: T2, MHC class I molecule B*0702 (biotin (bound to streptavidin-coated plate))
T2 construct: iTopia monomer stripped of placeholder peptide and b2M, then reconstituted with test peptide and fresh b2M; also called B7; HLA-B7
Outline: as §1

[3] = target: T3, MHC class I molecule A*0301 (biotin (bound to streptavidin-coated plate))
T3 construct: iTopia monomer stripped of placeholder peptide and b2M, then reconstituted with test peptide and fresh b2M; also called A3; HLA-A3
Outline: as §1

[4] = target: T4, MHC class I molecule A*0201 (biotin (bound to streptavidin-coated plate))
T4 construct: iTopia monomer stripped of placeholder peptide and b2M, then reconstituted with test peptide and fresh b2M; also called A2; HLA-A2
Outline: as §1

Row | Binder | binding, % of positive control peptide [1] | binding, % of positive control peptide [2] | binding, % of positive control peptide [3] | binding, % of positive control peptide [4]
1 | LGIVLALIG [5T4 9-mer peptide 180 (LGIVLALIG)] | 0 % of positive control | 0 % of positive control | 1 % of positive control | 10 % of positive control
2 | LELNSADLD [5T4 9-mer peptide 168 (LELNSADLD)] | 0 % of positive control | 3 % of positive control | 5 % of positive control | 3 % of positive control
3 | IRVFLDNNP [5T4 9-mer peptide 144 (IRVFLDNNP)] | 0 % of positive control | 5 % of positive control | 3 % of positive control | 4 % of positive control
4 | SFRNLTHLE [5T4 9-mer peptide 127 (SFRNLTHLE)] | 1 % of positive control | 0 % of positive control | 1 % of positive control | 1 % of positive control
5 | LDNNPWVCD [5T4 9-mer peptide 146 (LDNNPWVCD)] | 0 % of positive control | 3 % of positive control | 2 % of positive control | 0 % of positive control
6 | NNPWVCDCH [5T4 9-mer peptide 147 (NNPWVCDCH)] | 0 % of positive control | 4 % of positive control | 16 % of positive control | 0 % of positive control
7 | GKDRLTCAY [5T4 9-mer peptide 159 (GKDRLTCAY)] | 3 % of positive control | 4 % of positive control | 6 % of positive control | 6 % of positive control
8 | CAYPEKMRN [5T4 9-mer peptide 162 (CAYPEKMRN)] | 0 % of positive control | 3 % of positive control | 4 % of positive control | 11 % of positive control
9 | DRLTCAYPE [5T4 9-mer peptide 160 (DRLTCAYPE)] | 0 % of positive control | 3 % of positive control | 5 % of positive control | 6 % of positive control
10 | GAIFLLVLY [5T4 9-mer peptide 184 (GAIFLLVLY)] | 0 % of positive control | 0 % of positive control | 5 % of positive control | 5 % of positive control
11 | DNALKVLHN [5T4 9-mer peptide 134 (DNALKVLHN)] | 1 % of positive control | 0 % of positive control | 0 % of positive control | 5 % of positive control
12 | DPILPPSLQ [5T4 9-mer peptide 173 (DPILPPSLQ)] | 0 % of positive control | 0 % of positive control | 4 % of positive control | 7 % of positive control
13 | ETEVVQGKD [5T4 9-mer peptide 156 (ETEVVQGKD)] | 0 % of positive control | 1 % of positive control | 3 % of positive control | 1 % of positive control
14 | SADLDCDPI [5T4 9-mer peptide 170 (SADLDCDPI)] | 0 % of positive control | 3 % of positive control | 4 % of positive control | 4 % of positive control
15 | LHLEDNALK [5T4 9-mer peptide 132 (LHLEDNALK)] | 4 % of positive control | 0 % of positive control | 5 % of positive control | 4 % of positive control
16 | LNSADLDCD [5T4 9-mer peptide 169 (LNSADLDCD)] | 0 % of positive control | 0 % of positive control | 3 % of positive control | 0 % of positive control
17 | DCDPILPPS [5T4 9-mer peptide 172 (DCDPILPPS)] | 0 % of positive control | 0 % of positive control | 3 % of positive control | 0 % of positive control
18 | DCHMADMVT [5T4 9-mer peptide 150 (DCHMADMVT)] | 0 % of positive control | 5 % of positive control | 3 % of positive control | 7 % of positive control
19 | PWVCDCHMA [5T4 9-mer peptide 148 (PWVCDCHMA)] | 0 % of positive control | 0 % of positive control | 0 % of positive control | 0 % of positive control
20 | LTCAYPEKM [5T4 9-mer peptide 161 (LTCAYPEKM)] | 16 % of positive control | 6 % of positive control | 8 % of positive control | 40 % of positive control
21 | LKETEVVQG [5T4 9-mer peptide 155 (LKETEVVQG)] | 0 % of positive control | 3 % of positive control | 4 % of positive control | 3 % of positive control
22 | NGTLAELQG [5T4 9-mer peptide 138 (NGTLAELQG)] | 3 % of positive control | 0 % of positive control | 3 % of positive control | 9 % of positive control
23 | DLDCDPILP [5T4 9-mer peptide 171 (DLDCDPILP)] | 0 % of positive control | 3 % of positive control | 4 % of positive control | 0 % of positive control
24 | PHIRVFLDN [5T4 9-mer peptide 143 (PHIRVFLDN)] | 0 % of positive control | 10 % of positive control | 3 % of positive control | 2 % of positive control
25 | MRNRVLLEL [5T4 9-mer peptide 165 (MRNRVLLEL)] | 0 % of positive control | 13 % of positive control | 4 % of positive control | 6 % of positive control
26 | VQGKDRLTC [5T4 9-mer peptide 158 (VQGKDRLTC)] | 0 % of positive control | 6 % of positive control | 6 % of positive control | 4 % of positive control
27 | HLESLHLED [5T4 9-mer peptide 130 (HLESLHLED)] | 4 % of positive control | 2 % of positive control | 2 % of positive control | 3 % of positive control
28 | AELQGLPHI [5T4 9-mer peptide 140 (AELQGLPHI)] | 0 % of positive control | 0 % of positive control | 1 % of positive control | 9 % of positive control
29 | ESLHLEDNA [5T4 9-mer peptide 131 (ESLHLEDNA)] | 2 % of positive control | 0 % of positive control | 0 % of positive control | 8 % of positive control
30 | ADMVTWLKE [5T4 9-mer peptide 152 (ADMVTWLKE)] | 0 % of positive control | 8 % of positive control | 4 % of positive control | 6 % of positive control
